Data set [1] concerns the molecule itself. The data set can be described thus: SEC; Superdex 200 10/300 GL, 20 mM phosphate buffer pH 8.0, 150 mM NaCl, 2 mM GSH, 0.5 mL/min, 25°C; calibrated with molecular weight standards.
Substrate in the data set “purified protein”: S=C=NCCc1ccccc1
Kind of data set: purified protein. It counts as biochemical, Synechocystis sp. PCC 6803. Also noted: Vmax: unit not given here. To be noted: co-substrate 1 mM GSH, 50 mM potassium phosphate pH 6.5, 150 mM NaCl, 30 °C.

B1: Glutathione S-transferase sll0067 from Synechocystis PCC 6803 (enzyme, UniProt Q55139 1-184, looked up)
chain: MIKLYGAPQSRASIIQWYLEELSLPYEFVNVNLKEGEHRQAPYLAINPFGKVPAIADGNFHLWESGAILLYLAEKASTIPADAQARALVNQWILFANSTLANGLFIEAVREKEMPRLLQSLEKILGRSPFILGEKFSVVDVAVGSILAYVPIMLKLNFDDYPAVAAYVQGLVQRPAFQASIGAR
notes: gene of 0.55 kb amplified from genomic DNA with primers from the ATG to the stop codon; subunit of about 20 kDa; Cloned at BamHI and HindIII sites of pQE30 and purified on Ni-NTA; also called GST sll0067; recombinant sll0067; source: E. coli M15, purified (Ni-NTA agarose)
Regarding B1, in data set [1], the “stoichiometry N” value turned out to be 2. For the same protein, in “purified protein”, the Km is 319.3 ± 33 µM, the Vmax was determined as 21.8, the kcat is 15.2 ± 0.58 s⁻¹ and the catalytic efficiency (kcat/Km) was found to be 47500 ± 620 M⁻¹ s⁻¹.

Broadly, the stoichiometry N is a count of units in the complex or per binding partner. As a reminder, the Km is the substrate concentration at which the rate is half of its maximum. The kcat is the number of substrate molecules converted per active site and unit of time at saturation. As a reminder, the kcat/Km is the second-order rate constant that governs catalysis at low substrate concentration.

The record behind these values is publication PMC4429112, “Characterization of a Highly pH Stable Chi-Class Glutathione S-Transferase from Synechocystis PCC 6803” (PLoS ONE, 2015).
